Values quoted from earlier work as cited in patent EP0314042A2, “Novel copolymers and superoxide dismutase modified with said copolymers” (KURARAY CO., LTD., priority 1987, dated 1989).

Assays:
[1] = as compared with SOD; cited from earlier work
[2] = result in words, relative to SOD; cited from earlier work

Row | Substance | enzymatic activity of SOD [1] | plasma half-life [2]
1 | Ficoll-modified SOD: SOD converted to a giant molecule through modification with Ficoll | markedly decreased | –
2 | polyethylene glycol-modified-SOD: SOD converted to a giant molecule through modification with polyethylene glycol | markedly decreased | –
3 | inulin-modified SOD: SOD modified with inulin (Japanese Kokai Tokkyo Koho No. 58-32826) | reduced | much prolonged
